Reference: US20040146507A1 (Genentech, published 2004)
Where two headings read alike, the source gives them in different places.

T1: rhesus CD11a (rhesus, UniProt H9Z8N3 26-1169)
T1 construct: whole, on cells; On rhesus peripheral blood lymphocytes or leukocytes; also called rhCD11a
T1 sequence: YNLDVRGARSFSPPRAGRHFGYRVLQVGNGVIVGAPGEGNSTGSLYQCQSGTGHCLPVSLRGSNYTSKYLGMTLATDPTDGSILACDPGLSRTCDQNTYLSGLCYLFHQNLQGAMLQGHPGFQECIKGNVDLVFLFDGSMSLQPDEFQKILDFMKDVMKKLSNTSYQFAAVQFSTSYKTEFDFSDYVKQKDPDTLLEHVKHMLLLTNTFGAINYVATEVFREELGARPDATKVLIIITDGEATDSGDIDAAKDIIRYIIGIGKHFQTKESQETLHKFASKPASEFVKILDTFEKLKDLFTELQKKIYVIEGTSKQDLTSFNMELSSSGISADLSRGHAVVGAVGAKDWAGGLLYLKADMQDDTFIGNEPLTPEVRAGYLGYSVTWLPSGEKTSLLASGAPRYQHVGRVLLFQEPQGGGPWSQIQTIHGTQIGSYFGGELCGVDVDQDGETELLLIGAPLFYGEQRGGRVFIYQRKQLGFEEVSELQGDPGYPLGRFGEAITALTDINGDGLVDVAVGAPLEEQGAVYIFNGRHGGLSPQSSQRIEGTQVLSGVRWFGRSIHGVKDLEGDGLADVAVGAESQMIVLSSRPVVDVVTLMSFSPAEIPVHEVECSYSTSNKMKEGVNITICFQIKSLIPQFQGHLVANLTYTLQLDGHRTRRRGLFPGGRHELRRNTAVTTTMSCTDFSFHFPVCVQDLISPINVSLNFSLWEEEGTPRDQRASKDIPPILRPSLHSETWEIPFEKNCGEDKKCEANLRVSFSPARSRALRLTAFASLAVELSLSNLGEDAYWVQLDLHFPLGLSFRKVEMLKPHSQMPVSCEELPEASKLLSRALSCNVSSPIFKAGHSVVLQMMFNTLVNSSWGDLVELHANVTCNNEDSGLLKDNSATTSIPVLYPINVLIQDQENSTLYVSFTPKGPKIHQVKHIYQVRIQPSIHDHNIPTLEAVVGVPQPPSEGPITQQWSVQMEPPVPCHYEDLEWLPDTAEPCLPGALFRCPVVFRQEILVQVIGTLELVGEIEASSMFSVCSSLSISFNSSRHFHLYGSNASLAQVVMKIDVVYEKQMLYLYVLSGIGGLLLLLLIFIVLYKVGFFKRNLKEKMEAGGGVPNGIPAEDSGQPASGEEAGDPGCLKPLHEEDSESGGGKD


Key:
human CD11a [1] = target: T2, human CD11a (human, UniProt P20701 26-1170); assay: FACScan, Jurkat cells
T2 construct: whole, on cells; On Jurkat T-cells or human peripheral blood mononuclear cells, as part of LFA-1; also called CD11a on Jurkat cells; alpha subunit of LFA-1
Protocol: (§1) Aliquots of 10⁶ Jurkat T-cells were incubated with serial dilutions of humanized and control antibodies in PBS-0.1% BSA-10 mM sodium azide for 45 min at 4° C. The cells were washed and then incubated in fluorescein-conjugated goat anti-human F(ab′)₂ (Organon Teknika, Westchester, Pa.) for 45 min at 4° C. Cells were washed and analysed on a FACScan (Becton Dickinson, Mountain View, Calif.). 8×10³ cells were acquired by list mode and gated by forward light scatter versus side light scatter, thereby excluding dead cells and debris.

human CD11a [2] = target: T2, human CD11a; assay: cell-based or functional assay
rhesus CD11a [3] = target: T1, rhesus CD11a; assay: rhesus PBL binding
rhesus CD11a [4] = target: T1, rhesus CD11a; assay: rhesus PBL binding; remark: listed apart in the source
human CD11a [5] = target: T2, human CD11a; assay: FACScan, Jurkat cells; remark: listed apart in the source
Protocol: as §1
(§2) To determine which CDR residues were involved in binding to human CD11a an alanine-scan (Cunningham et al., Science 244:1081 (1989)) was performed on the CDR residues of HuIgG1. Each mutant was tested for binding to CD11a on Jurkat cells. In the light chain only CDR-L3 contributes to binding.
Target sequence in this assay (P20701 26-1170): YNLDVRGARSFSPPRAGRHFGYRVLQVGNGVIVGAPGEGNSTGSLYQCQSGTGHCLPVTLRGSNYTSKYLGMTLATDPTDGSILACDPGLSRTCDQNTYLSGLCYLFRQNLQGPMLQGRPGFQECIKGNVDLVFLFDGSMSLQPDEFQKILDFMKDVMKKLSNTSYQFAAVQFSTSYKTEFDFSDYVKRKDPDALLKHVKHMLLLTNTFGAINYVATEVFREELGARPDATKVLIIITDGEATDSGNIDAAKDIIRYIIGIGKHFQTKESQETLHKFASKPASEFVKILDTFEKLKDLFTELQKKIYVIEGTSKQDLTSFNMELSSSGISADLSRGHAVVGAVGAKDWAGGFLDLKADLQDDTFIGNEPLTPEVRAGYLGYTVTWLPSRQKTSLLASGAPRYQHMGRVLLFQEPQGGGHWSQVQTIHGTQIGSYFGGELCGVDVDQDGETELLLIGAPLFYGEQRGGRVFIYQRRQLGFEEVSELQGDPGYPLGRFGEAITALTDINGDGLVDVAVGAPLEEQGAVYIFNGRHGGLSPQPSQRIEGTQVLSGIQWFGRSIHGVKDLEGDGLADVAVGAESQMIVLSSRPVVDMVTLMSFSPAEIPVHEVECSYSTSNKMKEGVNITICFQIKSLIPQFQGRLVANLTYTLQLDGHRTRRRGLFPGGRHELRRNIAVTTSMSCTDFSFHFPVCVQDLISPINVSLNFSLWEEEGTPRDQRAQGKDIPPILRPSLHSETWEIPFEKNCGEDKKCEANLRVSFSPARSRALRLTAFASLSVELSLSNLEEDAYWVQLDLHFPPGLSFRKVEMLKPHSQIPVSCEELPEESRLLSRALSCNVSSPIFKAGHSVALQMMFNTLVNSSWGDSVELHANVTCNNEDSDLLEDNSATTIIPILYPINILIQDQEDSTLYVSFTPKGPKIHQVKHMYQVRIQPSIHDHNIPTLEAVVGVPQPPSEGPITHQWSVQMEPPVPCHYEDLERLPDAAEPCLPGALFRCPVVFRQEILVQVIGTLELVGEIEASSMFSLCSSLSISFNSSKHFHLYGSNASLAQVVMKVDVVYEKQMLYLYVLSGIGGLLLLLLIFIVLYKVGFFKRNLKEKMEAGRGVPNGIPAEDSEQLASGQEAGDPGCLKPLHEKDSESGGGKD

rhesus CD11a [6] = target: T1, rhesus CD11a; assay: rhesus PBL binding; remark: listed apart in the source
rhesus CD11a [7] = target: T1, rhesus CD11a; assay: rhesus PBL binding; end of range assigned by the printed EC50s
human CD11a [8] = target: T2, human CD11a; assay: FACScan, Jurkat cells; remark: listed apart in the source
Protocol: as §1, §2

rhesus CD11a [9] = target: T1, rhesus CD11a; assay: rhesus PBL binding; remark: listed apart in the source

EC50 F(ab)/EC50 F(ab)-2 (human CD11a [1])	Var.EC50/HuIgG1 EC50 (rhesus CD11a [3])	Mutant EC50/HuIgG1 EC50 (rhesus CD11a [4])	Var.EC50/HuIgG1 EC50 (human CD11a [5])	fold improvement in binding over HuIgG1 (rhesus CD11a [6])	Binder	further results
0.006 ratio	–	–	–	–	chimeric MHM24 IgG1 (antibody, V domains shown, Murine VL and VH fused to human constant light and heavy (IgG1) chains; also called chIgG1; chimeric IgG1) VH: EVQLQQPGAELMRPGASVKLSCKASGYSFTGHWMNWVRQRPGQGLEWIGMIHPSDSETRLNQKFKDKATLTVDKSSSSAYMQLSSPTSEDSAVYYCARGIYFYGTTYFDYWGQGTTLTVSS VL: DVQITQSPSYLAASPGETISINCRASKTISKYLAWYQEKPGKTNKLLIYSGSTLQSGIPSRFSGSGSGTDFTLTISSLEPEDFAMYYCQQHNEYPLTFGTGTKLELKR	EC50 (human CD11a [1]): 5.2 ng/mL; IC50, blocking of cell adhesion, Jurkat: HuK (human CD11a [2]): 100 pM
–	0.3 ratio	0.3 ratio	147 ratio	3 fold	HuIgG1 mutant AspH54Ala (antibody, V domains shown, HuIgG1 mutant, human IgG1; Kabat numbering) VH: EVQLVESGGGLVQPGGSLRLSCAASGYSFTGHWMNWVRQAPGKGLEWVGMIHPSASETRYNQKFKDRFTISVDKSKNTLYLQMNSLRAEDTAVYYCARGIYFYGTTYFDYWGQGTLVTVSS VL: DIQMTQSPSSLSASVGDRVTITCRASKTISKYLAWYQQKPGKAPKLLIYSGSTLQSGVPSRFSGSGSGTDFTLTISSLQPEDFATYYCQQHNEYPLTFGQGTKVEIK	Mutant EC50/HuIgG1 EC50 (human CD11a [1]): 147 ratio
0.004 ratio	–	–	–	–	humanized MHM24 F(ab)-8 (Fab, V domains shown, F(ab) from E. coli with human kappa CL and CH1) VH: EVQLVESGGGLVQPGGSLRLSCAASGYSFTGHWMNWVRQAPGKGLEWVGMIHPSDSETRYNQKFKDRFTISVDKSKNTLYLQMNSLRAEDTAVYYCARGIYFYGTTYFDYWGQGTLVTVSS VL: DIQMTQSPSSLSASVGDRVTITCRASKTISKYLAWYQQKPGKAPKLLIYSGSTLQSGVPSRFSGSGSGTDFTLTISSLQPEDFATYYCQQHNEYPLTFGQGTKVEIKR	–
–	–	–	–	–	HuIgG1 mutant H2C11 (antibody, V domains shown) VH: EVQLVESGGGLVQPGGSLRLSCAASGYSFTGHWMNWVRQAPGKGLEWVGMIAPASSNTRYNQKFKDRFTISVDKSKNTLYLQMNSLRAEDTAVYYCARGIYFYGTTYFDYWGQGTLVTVSS VL: DIQMTQSPSSLSASVGDRVTITCRASKTISKYLAWYQQKPGKAPKLLIYSGSTLQSGVPSRFSGSGSGTDFTLTISSLQPEDFATYYCQQHNEYPLTFGQGTKVEIKR	fold improvement over EC50 of HuIgG1 for rhesus CD11a (rhesus CD11a [7]): 240 to 415 fold; fold weaker than EC50 of HuIgG1 for human CD11a (rhesus CD11a [7]): 3 to 5 fold; Var.EC50/HuIgG1 EC50 (human CD11a [8]): 24.9 ratio; Var.EC50/HuIgG1 EC50 (rhesus CD11a [9]): 0.002 ratio; EC50 (rhesus CD11a [6]): 110 pM
–	–	3.8 ratio	–	–	HuIgG1 mutant AspH54Lys (antibody, V domains shown, HuIgG1 mutant, human IgG1; Kabat numbering; also called AspH54 change to Lys) VH: EVQLVESGGGLVQPGGSLRLSCAASGYSFTGHWMNWVRQAPGKGLEWVGMIHPSKSETRYNQKFKDRFTISVDKSKNTLYLQMNSLRAEDTAVYYCARGIYFYGTTYFDYWGQGTLVTVSS VL: DIQMTQSPSSLSASVGDRVTITCRASKTISKYLAWYQQKPGKAPKLLIYSGSTLQSGVPSRFSGSGSGTDFTLTISSLQPEDFATYYCQQHNEYPLTFGQGTKVEIK	–
0.012 ratio	–	–	–	–	humanized MHM24 F(ab)-6 (Fab, V domains shown, F(ab) from E. coli) VH: EVQLVESGGGLVQPGGSLRLSCAASGFSFTGHWMNWVRQAPGKGLEWVGMIHPSDSETRYNQKFKDRFTISVDKSSSTLYLQMNSLRAEDTAVYYCARGIYFYGTTYFDYWGQGTLVTVSS VL: DIQMTQSPSSLSASVGDRVTITCRASKTISKYLAWYQQKPGKAPKLLIYSGSTLQSGVPSRFSGSGSGTDFTLTISSLQPEDFATYYCQQHNEYPLTFGQGTKVEIK	fold improvement in binding over F(ab)-5 (human CD11a [1]): 4 fold
–	0.055 ratio	–	14.1 ratio	–	HuIgG1 mutant H2 (antibody, V domains shown, HuIgG1 mutant, human IgG1; Kabat numbering) VH: EVQLVESGGGLVQPGGSLRLSCAASGYSFTGHWMNWVRQAPGKGLEWVGMIAPADAETRYNQKFKDRFTISVDKSKNTLYLQMNSLRAEDTAVYYCARGIYFYGTTYFDYWGQGTLVTVSS VL: DIQMTQSPSSLSASVGDRVTITCRASKTISKYLAWYQQKPGKAPKLLIYSGSTLQSGVPSRFSGSGSGTDFTLTISSLQPEDFATYYCQQHNEYPLTFGQGTKVEIK	fold better binding than HuIgG1 (rhesus CD11a [6]): 18 fold
–	–	0.9 ratio	–	–	HuIgG1 mutant AspH54Ser (antibody, V domains shown, HuIgG1 mutant, human IgG1; Kabat numbering; also called AspH54 change to Ser) VH: EVQLVESGGGLVQPGGSLRLSCAASGYSFTGHWMNWVRQAPGKGLEWVGMIHPSSSETRYNQKFKDRFTISVDKSKNTLYLQMNSLRAEDTAVYYCARGIYFYGTTYFDYWGQGTLVTVSS VL: DIQMTQSPSSLSASVGDRVTITCRASKTISKYLAWYQQKPGKAPKLLIYSGSTLQSGVPSRFSGSGSGTDFTLTISSLQPEDFATYYCQQHNEYPLTFGQGTKVEIK	–
–	0.3 ratio	–	4 ratio	3 fold	HuIgG1 mutant GluH56Ala (antibody, V domains shown, HuIgG1 mutant, human IgG1; Kabat numbering) VH: EVQLVESGGGLVQPGGSLRLSCAASGYSFTGHWMNWVRQAPGKGLEWVGMIHPSDSATRYNQKFKDRFTISVDKSKNTLYLQMNSLRAEDTAVYYCARGIYFYGTTYFDYWGQGTLVTVSS VL: DIQMTQSPSSLSASVGDRVTITCRASKTISKYLAWYQQKPGKAPKLLIYSGSTLQSGVPSRFSGSGSGTDFTLTISSLQPEDFATYYCQQHNEYPLTFGQGTKVEIK	–
–	0.013 ratio	–	10.8 ratio	77 fold	HuIgG1 mutant H2A1 (antibody, V domains shown, HuIgG1 mutant, human IgG1; Kabat numbering) VH: EVQLVESGGGLVQPGGSLRLSCAASGYSFTGHWMNWVRQAPGKGLEWVGMIAPADSETRYNQKFKDRFTISVDKSKNTLYLQMNSLRAEDTAVYYCARGIYFYGTTYFDYWGQGTLVTVSS VL: DIQMTQSPSSLSASVGDRVTITCRASKTISKYLAWYQQKPGKAPKLLIYSGSTLQSGVPSRFSGSGSGTDFTLTISSLQPEDFATYYCQQHNEYPLTFGQGTKVEIK	Var.EC50/HuIgG1 EC50 (human CD11a [8]): 10.8 ratio; Var.EC50/HuIgG1 EC50 (rhesus CD11a [9]): 0.013 ratio
0.004 ratio	–	–	–	–	humanized MHM24 F(ab)-7 (Fab, V domains shown, F(ab) from E. coli) VH: EVQLVESGGGLVQPGGSLRLSCAASGYSFTGHWMNWVRQAPGKGLEWVGMIHPSDSETRYNQKFKDRFTISVDKSSSTLYLQMNSLRAEDTAVYYCARGIYFYGTTYFDYWGQGTLVTVSS VL: DIQMTQSPSSLSASVGDRVTITCRASKTISKYLAWYQQKPGKAPKLLIYSGSTLQSGVPSRFSGSGSGTDFTLTISSLQPEDFATYYCQQHNEYPLTFGQGTKVEIK	fold improvement in binding over F(ab)-6 (human CD11a [1]): 3 fold
–	–	4.4 ratio	–	–	HuIgG1 mutant AspH54Gln (antibody, V domains shown, HuIgG1 mutant, human IgG1; Kabat numbering; also called AspH54 change to Gln) VH: EVQLVESGGGLVQPGGSLRLSCAASGYSFTGHWMNWVRQAPGKGLEWVGMIHPSQSETRYNQKFKDRFTISVDKSKNTLYLQMNSLRAEDTAVYYCARGIYFYGTTYFDYWGQGTLVTVSS VL: DIQMTQSPSSLSASVGDRVTITCRASKTISKYLAWYQQKPGKAPKLLIYSGSTLQSGVPSRFSGSGSGTDFTLTISSLQPEDFATYYCQQHNEYPLTFGQGTKVEIK	Mutant EC50/HuIgG1 EC50 (human CD11a [1]): 20 ratio
–	–	0.1 ratio	–	10 fold	HuIgG1 mutant AspH54Asn (antibody, V domains shown, HuIgG1 mutant, human IgG1; Kabat numbering) VH: EVQLVESGGGLVQPGGSLRLSCAASGYSFTGHWMNWVRQAPGKGLEWVGMIHPSNSETRYNQKFKDRFTISVDKSKNTLYLQMNSLRAEDTAVYYCARGIYFYGTTYFDYWGQGTLVTVSS VL: DIQMTQSPSSLSASVGDRVTITCRASKTISKYLAWYQQKPGKAPKLLIYSGSTLQSGVPSRFSGSGSGTDFTLTISSLQPEDFATYYCQQHNEYPLTFGQGTKVEIK	Mutant EC50/HuIgG1 EC50 (human CD11a [1]): 26 ratio
